Measurements taken from US6784157B2, “Peptides and peptidomimetics with structural similarity to human p53 that activate p53 function” (Bayer Corporation, priority 1995, dated 2004).
Like-named read-outs stand apart in the source and are kept apart here. Starred links: 1 amine or outer side, 2 acyl side, 3 side chain; linkers in the order of their positions; H or OH if unused. Non-standard residues stand in square brackets, D forms with d. Residues, ends and D or L forms follow the SMILES beside them. No end group written: not given here. X1 = O=C([C@H](CC1C=NC=N1)N[*:1])[*:2]

Experiments:
human wild-type p53 = target: T1, human wild-type p53 (Homo sapiens, UniProt P04637); experiment: p53 DNA binding assay: activation of DNA binding of wild-type p53; type: biochemical; conditions: for potency in activating DNA binding relative to p53p373-383: 0.4 mM; for activation of binding of wild-type p53: peptide 0.4 mM
T1 construct: Plasmid pGEMhump53wt encodes full-length human wild-type p53; made in house; host or cells: cell-free in vitro transcription and translation from pGEM4-based plasmid

p53 mutant His273 = target: T2, p53 mutant His273 (Homo sapiens, UniProt P04637, R273H); experiment: p53 DNA binding assay: activation of DNA binding of mutant His273; type: biochemical; conditions: oligonucleotide BC
T2 construct: made in house; host or cells: cell-free in vitro transcription and translation from pGEMhump53His273
Protocol: (§1) The ability of the peptides of this invention to activate DNA binding of human p53 was assayed using a standard DNA binding assay for p53 [Halazonetis et al. (1993), cited above; Halazonetis and Kandil (1993), cited above]. This assay utilizes in vitro translated human wild-type p53 or tumor-derived p53 mutants and specific oligonucleotides containing p53 binding sites. These reagents and methods for preparing them are described below.
Plasmid pGEMhump53wt was used to generate plasmids encoding mutant p53 proteins frequently associated with human cancer. The mutations introduced are those that are most frequently associated with human tumors [Caron de Fromentel et al. (1992), Genes Chrom. Cancer, 4: 1-15]. […]
Plasmids of the pGEMhump53 series were used to produce in vitro transcribed mRNA and subsequently in vitro translated protein, according to standard procedures [Halazonetis et al. (1988), Cell, 55: 917-924]. […] Thus, the presence of slowly migrating DNA, which can be detected by autoradiography, indicates p53 DNA binding [Halazonetis et al. (1993), cited above; Halazonetis and Kandil (1993), cited above]. […]

oligonucleotide BC.V4A = experiment: DNA binding assay of in vitro translated p53 deletion mutants (gel shift)
Protocol: as §1
Plasmids of the pGEMhump53 series were used to produce in vitro transcribed mRNA and subsequently in vitro translated protein, according to standard procedures [Halazonetis et al. (1988), Cell, 55: 917-924]. The in vitro translated proteins were assayed for DNA binding, as previously described [Halazonetis et al. (1993), cited above, and incorporated herein by reference]. Briefly the in vitro translated protein is incubated with a radioactively labeled oligonucleotide containing a p53 binding site in the presence of non-specific competitor DNA. The reaction mixture is incubated 20 min. at room temperature and directly loaded on a native 5% polyacrylamide electrophoresis gel. In this type of DNA binding assay free DNA migrates to the bottom of the gel, whereas p53/DNA complexes migrate more slowly. Thus, the presence of slowly migrating DNA, which can be detected by autoradiography, indicates p53 DNA binding [Halazonetis et al. (1993), cited above; Halazonetis and Kandil (1993), cited above].
As non-specific competitor DNAs we used 0.1 μg single-stranded oligonucleotide MI7 [[…], SEQ ID NO: 27] and 0.05 μg double-stranded oligonucleotide TF3 [[…], SEQ ID NO: 28] per reaction.
A number of double-stranded oligonucleotides containing p53 binding sites were radioactively labeled for these experiments. […] These three sites are indicated below, and the specific pentanucleotide repeats recognized by p53 are demarcated by hyphens. The sequence of oligonucleotide Ewaf1 (top strand) is: CCC-GAACA-TGTCC-CAACA-TGTTG-GGG [SEQ ID NO: 29]. […]

[1] = oligonucleotide Ewaf1, peptide 0.2-0.3 mM

C[C@H]1NC(=O)[C@H](CCCCN)NC(=O)[C@H](CCCCN)NC(=O)[C@H](CC2C=NC=N2)NC(=O)[C@H](CCCNC(=N)N)NC(=O)[C@H](CO)NC1=O (some centres unmarked) [c[SRHKKa]] (cyclo(KK[dA]SR[X1]))
efficiency of activation of p53 DNA binding relative to 0.05 mM peptide p53p363-373 (human wild-type p53; peptide 0.1 mM, assay of Example 2, p53 form and oligonucleotide not stated): about two times more efficiently

Arg Ala His Ser Ser His Leu Lys Ser Lys Lys (Ac-RAHSSHLKSKK-NH2) [p53p363-373]
potency in activating DNA binding relative to p53p373-383 (human wild-type p53; oligonucleotide Ewaf1): somewhat more potent | activation of binding of wild-type p53 (human wild-type p53; oligonucleotide Ewaf1): activated

Arg Ala His Ser Ser His Leu Lys Ser Lys Lys Gly Gln Ser Thr Ser Arg His Lys Lys Leu Met Phe Lys (Ac-RAHSSHLKSKKGQSTSRHKKLMFK-NH2) [p53p363-386]
activation of DNA binding of wild-type p53 (human wild-type p53; [1]): activated

Cys Gly Gly Ser Arg Ala His Ser Ser His Leu Lys Ser Lys Lys Gly Gln Ser Thr Ser Arg His Lys Lys Leu Met Phe Lys (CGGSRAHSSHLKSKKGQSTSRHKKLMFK; also: mixed with deletion peptides lacking Gly/Phe) [p53pC360-386]
activation of DNA binding of wild-type p53 (human wild-type p53; oligonucleotide BC.V4A, 0.02-0.2 mM peptide): activated | activation of DNA binding of wild-type p53 (human wild-type p53; oligonucleotide Ewaf1, concentration not given): activated | DNA binding activity of p53His273 in presence of peptide (p53 mutant His273; peptide 0.2 mM): demonstrated DNA binding activity

His Leu Lys Ser Lys Lys Gly Gln Ser Thr Ser Arg His (Ac-HLKSKKGQSTSRH-NH2) [p53p368-380]
potency in activating DNA binding relative to p53p373-383 (human wild-type p53; oligonucleotide Ewaf1): somewhat more potent | activation of binding of wild-type p53 (human wild-type p53; oligonucleotide Ewaf1): activated

Lys Gly Gln Ser Thr Ser Arg His Lys Lys Leu (Ac-KGQSTSRHKKL-NH2) [p53p373-383]
activation of binding of wild-type p53 (human wild-type p53; oligonucleotide Ewaf1): activated

Ser Arg Ala His Ser Ser His Leu Lys Ser Lys Lys Gly Gln Ser Thr Ser Arg His Lys Lys Leu Met Phe Lys (Ac-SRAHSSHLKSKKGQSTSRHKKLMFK-NH2) [p53p362-386]
activation of DNA binding of wild-type p53 (human wild-type p53; [1]): activated

Ser His Leu Lys Ser Lys Lys Gly Gln Ser Thr Ser Arg His Lys Lys Leu Met Phe Lys (Ac-SHLKSKKGQSTSRHKKLMFK-NH2) [p53p367-386]
activation of DNA binding of wild-type p53 (human wild-type p53; [1]): activated

Ser Lys Lys Gly Gln Ser Thr Ser Arg His Lys Lys Leu (SKKGQSTSRHKKL) [p53p371-383]
activation of DNA binding of wild-type p53 (human wild-type p53; oligonucleotide BC.V4A, peptide 0.2-0.4 mM): activated | DNA binding activity of p53His273 in presence of peptide (p53 mutant His273; peptide 0.4 mM): demonstrated DNA binding activity

p53D356-393: human wild-type p53 with deletion of residues 356-393, in vitro translated
Binding of Mutant p53 to BC.V4A DNA (oligonucleotide BC.V4A): activated

p53D364-393: human wild-type p53 with deletion of residues 364-393, in vitro translated
Binding of Mutant p53 to BC.V4A DNA (oligonucleotide BC.V4A): activated | Binding of Mutant p53 to BC.V4A DNA (oligonucleotide BC.V4A; listed as pGEMhump53D364-393): activates DNA binding
